B1: SARS-CoV-2 nsp9 (natural protein)
chain: NNELSPVALRQMSCAAGTTQTACTDDNALAYYNTTKGGRFVLALLSDLQDLKWARFPKSDGTGTIYTELEPPCRFVTDTPKGPKVKYLYFIKGLNNLNRGMVLGSLAATVRLQ
B2: RNAylated-nsp9 (20mer RNA) (natural protein)
chain: B1 chain

Target: SARS-CoV-2 nsp12 (SARS-CoV-2, UniProt P0DTD1)
Assay: cryo-EM structure

Binder	binding result
B1	binds
B2	binds
